The values that follow come from patent publication US20260258131A1 (ADAGENE PTE, published 2026).

In test [1] the target is T1, human CTLA4 expressed on cells (human, UniProt P16410 36-223).
T1 sequence (looked up): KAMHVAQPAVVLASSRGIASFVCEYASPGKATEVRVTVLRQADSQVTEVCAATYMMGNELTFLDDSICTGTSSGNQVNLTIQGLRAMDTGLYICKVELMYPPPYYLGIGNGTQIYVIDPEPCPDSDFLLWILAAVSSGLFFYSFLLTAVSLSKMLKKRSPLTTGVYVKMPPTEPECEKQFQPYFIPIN
The test is described as follows: cell-based or functional assay.

The target in test [2] is T2, Recombinant human CTLA4-hisFc (human, UniProt P16410 36-161, limits assumed).
T2 construct: Coated on the ELISA plate; the whole UniProt entry is named; also called recombinant human CLTA4-hisFc; its antigen; not shown: his tag and Fc
T2 sequence (looked up): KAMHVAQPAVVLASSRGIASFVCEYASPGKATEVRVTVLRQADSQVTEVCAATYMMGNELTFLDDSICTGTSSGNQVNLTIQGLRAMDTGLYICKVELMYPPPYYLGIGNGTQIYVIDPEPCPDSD
The test is described as follows: ELISA, coated CTLA4-hisFc. How it is done: (§1) Plates were blocked with PBS supplemented with 3% non-fat milk at 37° C. for 1 hour. After washing, 100 µL of 3-fold serial dilutions of antibodies were added to each well. After incubation at 37° C. for 1 hour, plates were washed four times, and 100 μL HRP conjugated anti-human IgG (Fab specific) (1:6000 dilution) was added to each well. Plates were incubated at 37° C. for 1 hour, washed four times, and then 50 μL TMB substrate solution was added to each well, and the plate was incubated at room temperature. Absorbance at 450 nm was measured after the reactions were stopped with 50 μL H2SO4 per well. The EC50 was evaluated by fitting the ELISA data using the sigmoidal (four-parameter logistic equation) model of GraphPad Prism 6 software. Experiments for some activatable antibodies were performed twice or more, leading to two or more calculated masking efficiencies being obtained for each of these activatable antibodies.
(§2) The purified activatable antibodies were treated with the proteases which recognize the cleavage sequences, and were then tested to determine whether removal of the masking peptide restored their activity. […] The reactions were carried out at 37° C. for 24 hours. […] The masking efficiency was then measured by ELISA as described above.
On the technique in general: An ELISA detects its analyte on a solid surface through an enzyme-linked reagent.

Test [3] deals with T3, recombinant cynomolgus monkey CTLA-4 protein (cynomolgus monkey, UniProt G7PL88 36-161).
T3 sequence: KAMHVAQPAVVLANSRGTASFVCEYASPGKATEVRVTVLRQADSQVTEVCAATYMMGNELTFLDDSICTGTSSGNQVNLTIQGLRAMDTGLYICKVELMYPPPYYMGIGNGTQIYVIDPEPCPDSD
The test is described as follows: SPR (Biacore), antibody captured by anti-human IgG Fc, CTLA-4 in flow. The procedure: (§3) Serial dilutions of recombinant CTLA-4 proteins of different species origins were sequentially loaded and flowed through the chip to measure the kinetics of CTLA-4 antigen association (kₐ), followed by a buffer flow-through phase for dissociation kinetics (kd) measurement. The binding affinity (KD) is then calculated with […].
Background: SPR reads the build-up and loss of mass on a sensor chip optically.

Test [4] has as its target recombinant mouse CTLA-4 protein (mouse, UniProt P09793 36-161, limits assumed). The description is as above. The procedure:
as §3

In test [5] the target is T4, recombinant rat CTLA-4 protein (rat, UniProt Q62859 36-161).
T4 sequence: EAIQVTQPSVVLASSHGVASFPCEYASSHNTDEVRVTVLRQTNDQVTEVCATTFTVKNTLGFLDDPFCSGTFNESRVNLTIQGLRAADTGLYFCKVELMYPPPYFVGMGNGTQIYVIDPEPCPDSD
The description is as above. How it is done:
as §3

For test [6], the target named is T5, recombinant human CTLA-4 protein (human, UniProt P16410 36-161, limits assumed).
T5 sequence (looked up): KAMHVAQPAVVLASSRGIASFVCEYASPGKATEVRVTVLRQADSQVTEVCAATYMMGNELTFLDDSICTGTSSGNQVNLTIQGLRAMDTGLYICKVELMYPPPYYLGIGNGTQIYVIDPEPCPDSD
The description is as above. How it is done: as §3

For test [7], the target named is T6, biotinylated CTLA-4 protein (UniProt P16410 36-161, limits assumed, biotinylated (sites not given)).
T6 construct: also called receptor CTLA-4
T6 sequence (looked up): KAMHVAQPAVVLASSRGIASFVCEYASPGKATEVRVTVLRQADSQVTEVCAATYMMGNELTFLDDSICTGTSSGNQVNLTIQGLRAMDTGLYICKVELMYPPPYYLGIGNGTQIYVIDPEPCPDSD
The test is described as follows: competition ELISA, biotinylated CTLA-4 on coated CD80 (competitor CD80). From the text: (§4) Relative CTLA-4 and its ligand binding was monitored by reading the absorbance at 450 nm wavelength in the micro-plate reader.

Test [8] has as its target T6, biotinylated CTLA-4 protein. The test is described as follows: competition ELISA, biotinylated CTLA-4 on coated CD86 (competitor CD86).
Text: as §4

The target of test [9] is T2, Recombinant human CTLA4-hisFc. The test is described as follows: ELISA, coated CTLA4-hisFc, after MMP-9 cleavage. The procedure: as §1, §2

B1: TY21580 (antibody, human IgG1, V domains shown)
VH: EVQLVESGGGLVQPGGSLRLSCAASGYSISSGYHWSWIRQAPGKGLEWLARIDWDDDKYYSTSLKSRLTISRDNSKNTLYLQLNSLRAEDTAVYYCARSYVYFDYWGQGTLVTVSS
VL: DIQLTQSPSSLSASVGDRVTITCRASQSVRGRFLAWYQQKPGKAPKLLIYDASNRATGIPSRFSGSGSGTDFTLTISSLQPEDFATYYCQQSSSWPPTFGQGTKVEIKR
notes: also called parental antibody TY21580
As to B1, the “ADCP reporter activity (luciferase), EC50” value in test [1] turned out to be 5.6 nM. In [2], the concentration giving a half-maximal response (EC50) (commonly the concentration at which the effect is half-maximal) was determined as 0.298 nM. Moreover, the Kd (commonly a measure of binding affinity in units of concentration) in [3] stood at 0.37 nM; in test [4], 0.5 nM; in test [5], 0.78 nM.

B2: TY24652 (antibody, human IgG1, kappa)
heavy: not shown
light: ETLCEPFATSVCRPGGGPLGLAGGGSDIQLTQSPSSLSASVGDRVTITCRASQSVRGRFLAWYQQKPGKAPKLLIYDASNRATGIPSRFSGSGSGTDFTLTISSLQPEDFATYYCQQSSSWPPTFGQGTKVEIKRTVAAPSVFIFPPSDEQLKSGTASVVCLLNNFYPREAKVQWKVDNALQSGNSQESVTEQDSKDSTYSLSSTLTLSKADYEKHKVYACEVTHQGLSSPVTKSFNRGEC
notes: also called non-cleaved form TY24652
On to B2, for which the Kd came to 32.5 nM in test [6], 32.3 nM in test [3], 49.4 nM in test [4] and 59.5 nM in test [5]. In addition, the concentration for half-maximal inhibition (IC50) (in general, the concentration that gives 50% inhibition) in test [7] was above 20000 nM; in test [8], above 4000 nM.

B3: TY24652-MMP9 (antibody, IgG1)
heavy: not shown
light: DIQLTQSPSSLSASVGDRVTITCRASQSVRGRFLAWYQQKPGKAPKLLIYDASNRATGIPSRFSGSGSGTDFTLTISSLQPEDFATYYCQQSSSWPPTFGQGTKVEIKRTVAAPSVFIFPPSDEQLKSGTASVVCLLNNFYPREAKVQWKVDNALQSGNSQESVTEQDSKDSTYSLSSTLTLSKADYEKHKVYACEVTHQGLSSPVTKSFNRGEC
notes: TY24652 after 24 h with MMP-9; IgG1 Fc with S239D/I332E
Regarding B3, the concentration for a half-maximal effect (EC50) in test [9] worked out at 0.313 nM. Besides, the Kd was 0.63 nM in test [4] and 0.69 nM in test [5]. Further, the IC50 in test [7] is 280 nM; in test [8] it was 17.5 nM.
